Among the data in paper PMC12491500 are Kd values, retold here.

The assay deals with His-tagged SA2107 labelled with ATTO 488 (SA2107_(488)) (Staphylococcus aureus). The assay is described as follows: flow-induced dispersion analysis (FIDA); PreMix method; 20 nM SA2107_(488) as indicator, preincubated 10 min with 0-2 µM unlabelled ComK1 or ComK2 as analyte; PBS + Tween 0.1%; 25 °C; change of the apparent hydrodynamic radius; three independent experiments.

For “His6-tagged ComK2 (recombinant, purified) (natural protein)”, the Kd came to 0.42 µM.
